Assay in all cases: cell-based or functional assay
Test [1] concerns the target HIV-1 env glycoprotein (YU2) (HIV-1 (YU2)) (UniProt P35961).
Test [2] deals with HIV-2 7312A envelope with site-directed mutations 660 (K to A), 662 (N to D), 663 (S to K) and 665 (D to A) of SEQ ID NO:2 (HIV-2 (isolate 7312A)).
In test [3] the target is HIV-2 strain 7312A envelope polypeptide (wild-type) (HIV-2 (isolate 7312A)).
For test [4], the target named is HIV-2 7312A envelope with site-directed substitutions at 675 (L to I) and 676 (A to T) (HXB2 numbering) (HIV-2 (isolate 7312A)).
For test [5], the target named is HIV-2 ST envelope polypeptide (wild-type) (HIV-2 (strain ST)) (UniProt P20872).
The target in test [6] is HIV-2 UC1 envelope polypeptide (wild-type) (HIV-2 (strain UC1)) (UniProt Q76638).

As to 2F5 monoclonal antibody, the values for the neutralization IC50 (JC53bl-13 HIV entry assay) in test [1], in test [2] and in test [3] were 25 µg/mL, under 0.1 µg/mL and over 50 µg/mL, respectively.
As for 4E10 monoclonal antibody, the neutralization IC50 (JC53bl-13 HIV entry assay) was 25 µg/mL in test [1]; 0.8 µg/mL in test [4]; 0.1 µg/mL in test [5]; 1.2 µg/mL in test [6]; over 50 µg/mL in test [3].
On to b12 monoclonal antibody, for which the results for the neutralization IC50 (JC53bl-13 HIV entry assay) in test [1] and in test [3] were 3 µg/mL and over 50 µg/mL, respectively.

(Values after patent US20090162390A1.)
